From article PMC11014985, “TCTP regulates genotoxic stress and tumorigenicity via intercellular vesicular signaling”

T1: TCTP (UniProt P13693 1-172)
T1 sequence: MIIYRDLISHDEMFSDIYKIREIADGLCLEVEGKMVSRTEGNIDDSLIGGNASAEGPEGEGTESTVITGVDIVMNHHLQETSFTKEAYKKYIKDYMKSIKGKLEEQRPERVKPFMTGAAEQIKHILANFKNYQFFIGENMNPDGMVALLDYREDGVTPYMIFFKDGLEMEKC

B1: RNA01 (ssRNA)
RNA: UCAUACUUUUCUUUUCUUUUCCAUC
B2: let-7c-5p (ssRNA)
RNA: UGAGGUAGUAGGUUGUAUGGUU

Columns and labels:
TCTP [1] = target: T1, TCTP; experiment: EMSA; 50 nM RNA, increasing TCTP; pH 7.5; EMSA: RNA01 at pH 7.5, 6% native PAGE at 4 C; let-7c-5p 50 nM, proteins preincubated 20 min then 25 min on ice, ATP or AMP-PNP (5 mM), NativePAGE 3-12% Bis-Tris; conditions: protein: recombinant; label: 5'-Cy5; single strand
Ded1 (DEAD-box helicase) = Ded1 (DEAD-box helicase) (yeast, UniProt P06634 1-604); experiment: EMSA; 50 nM RNA; positive control; AMP-PNP; EMSA: RNA01 at pH 7.5, 6% native PAGE at 4 C; let-7c-5p 50 nM, proteins preincubated 20 min then 25 min on ice, ATP or AMP-PNP (5 mM), NativePAGE 3-12% Bis-Tris; conditions: protein: recombinant; label: 5'-Cy5; single strand
DDX3-WT = DDX3-WT (human, UniProt O00571 1-662); experiment: EMSA; 300 nM DDX3, 50 nM RNA; ATP or AMP-PNP (nucleotide not specified for outcome); EMSA: RNA01 at pH 7.5, 6% native PAGE at 4 C; let-7c-5p 50 nM, proteins preincubated 20 min then 25 min on ice, ATP or AMP-PNP (5 mM), NativePAGE 3-12% Bis-Tris; conditions: protein: recombinant; single strand
TCTP [2] = target: T1, TCTP; experiment: EMSA; 500 nM TCTP, 50 nM RNA; ATP or AMP-PNP; EMSA: RNA01 at pH 7.5, 6% native PAGE at 4 C; let-7c-5p 50 nM, proteins preincubated 20 min then 25 min on ice, ATP or AMP-PNP (5 mM), NativePAGE 3-12% Bis-Tris; conditions: protein: recombinant; single strand

Sequence of DDX3-WT (O00571 whole entry): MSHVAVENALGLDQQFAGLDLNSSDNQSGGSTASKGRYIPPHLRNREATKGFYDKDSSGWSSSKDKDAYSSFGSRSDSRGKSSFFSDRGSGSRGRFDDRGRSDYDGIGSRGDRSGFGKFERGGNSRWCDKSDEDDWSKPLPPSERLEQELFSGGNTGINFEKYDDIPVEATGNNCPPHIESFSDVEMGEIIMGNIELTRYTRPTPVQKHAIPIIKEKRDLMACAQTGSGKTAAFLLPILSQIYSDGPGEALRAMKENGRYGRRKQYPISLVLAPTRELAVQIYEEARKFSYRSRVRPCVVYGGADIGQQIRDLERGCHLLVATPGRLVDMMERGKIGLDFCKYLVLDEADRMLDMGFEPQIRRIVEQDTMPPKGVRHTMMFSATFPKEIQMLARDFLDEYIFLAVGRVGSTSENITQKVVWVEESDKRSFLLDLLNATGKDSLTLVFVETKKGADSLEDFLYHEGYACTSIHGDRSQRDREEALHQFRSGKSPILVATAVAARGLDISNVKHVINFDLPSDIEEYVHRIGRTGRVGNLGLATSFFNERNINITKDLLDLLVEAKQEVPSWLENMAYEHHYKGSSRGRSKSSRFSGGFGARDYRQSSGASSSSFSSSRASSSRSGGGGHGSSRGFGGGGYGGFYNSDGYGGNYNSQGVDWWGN
Sequence of Ded1 (DEAD-box helicase) (P06634 whole entry): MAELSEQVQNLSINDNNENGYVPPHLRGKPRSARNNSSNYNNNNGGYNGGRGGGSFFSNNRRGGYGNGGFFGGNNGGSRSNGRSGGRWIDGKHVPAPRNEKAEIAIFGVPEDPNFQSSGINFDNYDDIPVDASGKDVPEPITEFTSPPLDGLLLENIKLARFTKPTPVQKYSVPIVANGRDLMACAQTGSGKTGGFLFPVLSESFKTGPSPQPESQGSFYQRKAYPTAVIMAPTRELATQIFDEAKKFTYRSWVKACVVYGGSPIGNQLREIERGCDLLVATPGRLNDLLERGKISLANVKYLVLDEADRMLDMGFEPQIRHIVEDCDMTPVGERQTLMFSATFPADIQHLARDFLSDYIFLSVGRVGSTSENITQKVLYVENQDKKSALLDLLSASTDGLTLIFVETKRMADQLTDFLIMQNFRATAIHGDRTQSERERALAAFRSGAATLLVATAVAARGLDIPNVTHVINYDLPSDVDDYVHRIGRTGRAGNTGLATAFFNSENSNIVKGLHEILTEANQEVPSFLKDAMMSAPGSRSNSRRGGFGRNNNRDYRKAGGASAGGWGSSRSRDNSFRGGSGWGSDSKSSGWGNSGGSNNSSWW

Binder | binding result (TCTP [1]) | binding result (Ded1 (DEAD-box helicase)) | binding result (DDX3-WT) | binding result (TCTP [2])
B1 | no binding | binds | – | –
B2 | – | – | binds | no binding
